According to paper PMC9482650, “Quantitative fragmentomics allow affinity mapping of interactomes” (Nature Communications, 2022):

T1: GRIP1_4, Q9Y3R0
T1 sequence (Q9Y3R0 467-571, limits assumed, looked up): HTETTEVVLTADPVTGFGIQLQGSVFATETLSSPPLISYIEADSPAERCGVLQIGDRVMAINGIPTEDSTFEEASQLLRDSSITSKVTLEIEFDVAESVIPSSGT

T2: SIPA1L2, Q9P2F8
T2 sequence (Q9P2F8 945-1036, limits assumed, looked up): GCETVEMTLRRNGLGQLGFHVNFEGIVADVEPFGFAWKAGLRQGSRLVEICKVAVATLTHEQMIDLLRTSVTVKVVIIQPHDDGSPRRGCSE

T3: LIN7C, Q9NUP9
T3 sequence (Q9NUP9 88-185, limits assumed, looked up): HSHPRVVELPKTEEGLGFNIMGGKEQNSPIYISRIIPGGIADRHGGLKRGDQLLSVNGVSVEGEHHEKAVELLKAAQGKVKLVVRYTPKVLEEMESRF

T4: RHPN1, Q8TCX5
T4 sequence (Q8TCX5 508-602, limits assumed, looked up): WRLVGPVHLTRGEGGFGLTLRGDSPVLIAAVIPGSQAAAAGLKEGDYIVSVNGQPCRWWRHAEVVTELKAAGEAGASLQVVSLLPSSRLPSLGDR

T5: DLG3_3, Q92796
T5 sequence (Q92796 374-475, limits assumed, looked up): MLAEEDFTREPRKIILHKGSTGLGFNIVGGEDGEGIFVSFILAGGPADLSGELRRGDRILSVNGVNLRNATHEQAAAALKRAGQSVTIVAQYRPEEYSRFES

T6: MPDZ_12, O75970
T6 sequence (O75970 1857-1958, limits assumed, looked up): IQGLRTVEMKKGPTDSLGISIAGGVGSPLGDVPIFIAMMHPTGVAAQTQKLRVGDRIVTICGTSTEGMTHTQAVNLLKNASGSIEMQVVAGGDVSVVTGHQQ

T7: PARD3B_1, Q8TEW8
T7 sequence (Q8TEW8 196-299, limits assumed, looked up): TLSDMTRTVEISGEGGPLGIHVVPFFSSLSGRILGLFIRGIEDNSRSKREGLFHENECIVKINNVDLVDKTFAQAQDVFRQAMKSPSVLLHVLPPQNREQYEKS

T8: SHANK1, Q9Y566
T8 sequence (Q9Y566 658-767, limits assumed, looked up): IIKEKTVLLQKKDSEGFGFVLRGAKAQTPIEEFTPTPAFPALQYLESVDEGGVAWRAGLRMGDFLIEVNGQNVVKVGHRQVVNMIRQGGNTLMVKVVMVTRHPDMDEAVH


What was measured:
Assay in all cases: holdup assay
Parameters in all cases: key: below the threshold = too weak to quantify, mostly under pKd 3.1 to 4
Settings in all cases: plain residues with an end cap or a label only (N-terminal biotin on a linker: ado-ado)
[1] = target: T1, GRIP1_4, Q9Y3R0
[2] = target: FRMPD2_1, Q68DX3
FRMPD2_1, Q68DX3, sequence (Q68DX3 770-861): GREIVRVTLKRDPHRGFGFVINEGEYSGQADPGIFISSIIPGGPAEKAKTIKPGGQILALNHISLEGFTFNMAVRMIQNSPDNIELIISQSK

[3] = target: SNX27, Q96L92
[4] = target: T2, SIPA1L2, Q9P2F8
[5] = target: GRIP2_4, Q9C0E4
GRIP2_4, Q9C0E4, sequence (Q9C0E4 446-548): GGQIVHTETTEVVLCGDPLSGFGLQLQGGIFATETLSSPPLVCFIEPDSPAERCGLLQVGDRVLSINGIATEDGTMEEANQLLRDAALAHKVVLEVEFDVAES

[6] = target: NHERF4_4, Q86UT5
NHERF4_4, Q86UT5, sequence (Q86UT5 464-550): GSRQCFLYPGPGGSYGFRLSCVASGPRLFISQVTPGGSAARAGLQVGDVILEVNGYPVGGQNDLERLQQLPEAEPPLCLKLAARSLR

[7] = target: T3, LIN7C, Q9NUP9
[8] = target: T4, RHPN1, Q8TCX5
[9] = target: T5, DLG3_3, Q92796
[10] = target: MAGI2_2, Q86UL8
MAGI2_2, Q86UL8, sequence (Q86UL8 410-522): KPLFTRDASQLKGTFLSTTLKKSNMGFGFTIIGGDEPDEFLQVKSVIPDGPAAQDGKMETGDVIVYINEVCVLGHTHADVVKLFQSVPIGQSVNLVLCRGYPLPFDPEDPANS

[11] = target: NHERF4_1, Q86UT5-2
NHERF4_1, Q86UT5-2, sequence (Q86UT5 other isoform, or with tags, fused parts or gaps): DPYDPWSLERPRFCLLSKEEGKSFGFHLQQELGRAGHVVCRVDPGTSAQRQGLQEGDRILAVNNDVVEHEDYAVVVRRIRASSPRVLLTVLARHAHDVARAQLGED

[12] = target: T6, MPDZ_12, O75970
[13] = target: Inadl_6, Q8NI35
Inadl_6, Q8NI35, sequence (Q8NI35 1058-1167): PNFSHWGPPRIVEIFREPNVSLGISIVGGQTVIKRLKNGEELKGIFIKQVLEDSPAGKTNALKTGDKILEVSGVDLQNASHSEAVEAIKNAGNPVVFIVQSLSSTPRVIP

[14] = target: LNX1_3, Q8TBB1
LNX1_3, Q8TBB1, sequence (Q8TBB1 500-596): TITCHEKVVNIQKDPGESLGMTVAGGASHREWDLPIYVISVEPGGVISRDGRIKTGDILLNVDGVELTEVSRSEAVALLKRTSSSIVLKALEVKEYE

[15] = target: GRID2IP_2, A4D2P6
GRID2IP_2, A4D2P6, sequence (A4D2P6 272-370): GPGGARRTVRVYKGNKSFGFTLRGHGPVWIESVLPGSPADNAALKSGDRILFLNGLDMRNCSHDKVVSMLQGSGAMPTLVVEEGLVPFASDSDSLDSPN

[16] = target: HTRA2, O43464
HTRA2, O43464, sequence (O43464 355-458): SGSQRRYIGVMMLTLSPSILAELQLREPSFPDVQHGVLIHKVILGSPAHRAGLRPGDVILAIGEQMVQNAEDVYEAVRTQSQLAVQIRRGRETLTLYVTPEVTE

[17] = target: MAGI2_6, Q86UL8
MAGI2_6, Q86UL8, sequence (Q86UL8 1141-1229): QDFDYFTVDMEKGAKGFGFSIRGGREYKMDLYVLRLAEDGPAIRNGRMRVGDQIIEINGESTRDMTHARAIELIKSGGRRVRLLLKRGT

[18] = target: LDB3, O75112
LDB3, O75112, sequence (O75112 1-94): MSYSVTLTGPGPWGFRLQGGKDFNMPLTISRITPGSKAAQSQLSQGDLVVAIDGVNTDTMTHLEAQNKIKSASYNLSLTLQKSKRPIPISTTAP

[19] = target: SCRIB_3, Q14160
SCRIB_3, Q14160, sequence (Q14160 999-1103): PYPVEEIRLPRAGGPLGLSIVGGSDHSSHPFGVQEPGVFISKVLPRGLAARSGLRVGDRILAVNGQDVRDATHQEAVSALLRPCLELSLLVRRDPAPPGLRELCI

[20] = target: DLG1_2, Q12959
DLG1_2, Q12959, sequence (Q12959 314-412): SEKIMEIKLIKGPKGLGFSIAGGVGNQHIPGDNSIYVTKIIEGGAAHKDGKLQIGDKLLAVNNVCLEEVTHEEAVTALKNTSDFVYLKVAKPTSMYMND

[21] = target: T7, PARD3B_1, Q8TEW8
[22] = target: FRMPD3, Q5JV73
FRMPD3, Q5JV73, sequence (Q5JV73 12-100): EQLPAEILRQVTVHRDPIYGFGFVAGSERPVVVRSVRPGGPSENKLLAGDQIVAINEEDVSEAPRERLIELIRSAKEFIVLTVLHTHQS

[23] = target: GORASP1, Q9BQQ3
GORASP1, Q9BQQ3, sequence (Q9BQQ3 1-208): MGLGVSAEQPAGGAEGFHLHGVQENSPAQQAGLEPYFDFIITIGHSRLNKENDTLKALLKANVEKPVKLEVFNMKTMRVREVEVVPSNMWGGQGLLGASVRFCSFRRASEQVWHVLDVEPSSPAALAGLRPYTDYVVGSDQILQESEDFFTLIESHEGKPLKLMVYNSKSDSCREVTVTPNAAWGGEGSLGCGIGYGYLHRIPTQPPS

[24] = target: T8, SHANK1, Q9Y566
[25] = target: Inadl_2, Q8NI35
Inadl_2, Q8NI35, sequence (Q8NI35 238-335): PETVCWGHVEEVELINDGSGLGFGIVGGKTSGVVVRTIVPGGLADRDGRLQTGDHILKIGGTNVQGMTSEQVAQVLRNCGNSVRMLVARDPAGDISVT

[26] = target: NHERF2_2, Q15599
NHERF2_2, Q15599, sequence (Q15599 142-238): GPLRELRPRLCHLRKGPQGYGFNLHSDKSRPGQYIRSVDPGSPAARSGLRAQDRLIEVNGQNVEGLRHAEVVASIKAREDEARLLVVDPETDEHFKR

[27] = target: Inadl_1, Q8NI35
Inadl_1, Q8NI35, sequence (Q8NI35 113-229): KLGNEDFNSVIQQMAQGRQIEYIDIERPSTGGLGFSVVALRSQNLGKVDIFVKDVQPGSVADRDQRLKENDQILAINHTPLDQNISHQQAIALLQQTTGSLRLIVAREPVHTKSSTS

[28] = target: PTPN3, P26045
PTPN3, P26045, sequence (P26045 505-587): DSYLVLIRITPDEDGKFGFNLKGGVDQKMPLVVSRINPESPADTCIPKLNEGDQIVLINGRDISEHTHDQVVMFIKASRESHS

[29] = target: ARHGEF12, Q9NZN5-2
ARHGEF12, Q9NZN5-2, sequence (Q9NZN5 other isoform, or with tags, fused parts or gaps): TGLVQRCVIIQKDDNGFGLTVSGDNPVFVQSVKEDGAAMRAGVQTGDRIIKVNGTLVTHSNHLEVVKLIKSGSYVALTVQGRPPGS

| Binder | pKd [1] | pKd [2] | pKd [3] | pKd [4] | pKd [5] | pKd [6] | pKd [7] | pKd [8] | pKd [9] | pKd [10] | pKd [11] | pKd [12] | pKd [13] | pKd [14] | pKd [15] | pKd [16] | pKd [17] | pKd [18] | pKd [19] | pKd [20] | further results |
| --- | --- | --- | --- | --- | --- | --- | --- | --- | --- | --- | --- | --- | --- | --- | --- | --- | --- | --- | --- | --- | --- |
| QSARLWETSI [ADAM22, Q9P0K1] | below the threshold | below the threshold | 5.41 | below the threshold | below the threshold | 3.91 | 4.5 | 4.57 | 4.29 | 3.72 | below the threshold | below the threshold | 4.06 | below the threshold | 4.3 | below the threshold | 4.22 | below the threshold | 5.32 | 4.47 | pKd [21]: 3.78; pKd [22]: below the threshold; pKd [23]: below the threshold; pKd [24]: 3.72; pKd [25]: below the threshold; pKd [26]: 3.83; pKd [27]: 3.84; pKd [28]: 4.83; pKd [29]: 4.73 |
| SAAKVLTSMC [GHRHR, Q02643] | below the threshold | below the threshold | 5.16 | below the threshold | below the threshold | below the threshold | below the threshold | 4.06 | below the threshold | below the threshold | 4.35 | below the threshold | below the threshold | below the threshold | 4.38 | below the threshold | below the threshold | below the threshold | 3.61 | below the threshold | pKd [21]: below the threshold; pKd [22]: below the threshold; pKd [23]: below the threshold; pKd [24]: 3.89; pKd [25]: below the threshold; pKd [26]: below the threshold; pKd [27]: below the threshold; pKd [28]: 3.71; pKd [29]: 4.65 |
| RKPKPSSSCC [RAB9A, P51151] | below the threshold | below the threshold | below the threshold | below the threshold | below the threshold | below the threshold | 3.69 | below the threshold | below the threshold | below the threshold | 3.81 | below the threshold | below the threshold | below the threshold | 3.54 | below the threshold | below the threshold | 3.51 | below the threshold | below the threshold | pKd [21]: below the threshold; pKd [22]: below the threshold; pKd [23]: below the threshold; pKd [24]: below the threshold; pKd [25]: below the threshold; pKd [26]: below the threshold; pKd [27]: below the threshold; pKd [28]: 3.83; pKd [29]: 4.27 |

The next lines start with results.

| pKd [1] | pKd [2] | pKd [3] | pKd [4] | pKd [5] | pKd [6] | pKd [7] | pKd [8] | pKd [9] | pKd [10] | pKd [11] | pKd [12] | pKd [13] | pKd [14] | pKd [15] | pKd [16] | pKd [17] | pKd [18] | pKd [19] | pKd [20] | Binder | further results |
| --- | --- | --- | --- | --- | --- | --- | --- | --- | --- | --- | --- | --- | --- | --- | --- | --- | --- | --- | --- | --- | --- |
| below the threshold | below the threshold | 5.48 | below the threshold | below the threshold | below the threshold | 4.36 | 3.97 | below the threshold | below the threshold | 4 | below the threshold | below the threshold | below the threshold | below the threshold | below the threshold | 4.1 | 3.65 | 5.14 | 4.5 | TASPAKETSF [SLC2A7, Q6PXP3] | pKd [21]: 3.96; pKd [22]: below the threshold; pKd [23]: below the threshold; pKd [24]: below the threshold; pKd [25]: below the threshold; pKd [26]: 4.66; pKd [27]: below the threshold; pKd [28]: 5.22; pKd [29]: 3.59 |
| below the threshold | below the threshold | 4.4 | below the threshold | below the threshold | 3.92 | below the threshold | 4.01 | below the threshold | 3.8 | 3.6 | below the threshold | below the threshold | below the threshold | below the threshold | below the threshold | below the threshold | below the threshold | 4.61 | 3.82 | MLSKQSESAI [FLVCR1, Q9Y5Y0] | pKd [21]: 3.47; pKd [22]: below the threshold; pKd [23]: below the threshold; pKd [24]: below the threshold; pKd [25]: below the threshold; pKd [26]: below the threshold; pKd [27]: below the threshold; pKd [28]: 4.55; pKd [29]: 3.68 |
